We go through 14 molecules from patent US20200140562A1 (Innovent, published 2020).

The chains are these.
B1: ADI-25654, IgG1 format (antibody, V domains shown)
VH: QVQLVESGGGVVQPGRSLRLSCAASGFTFRSYDMHWVRQAPGKGLEWVAYIAYDGSNKYYADSVKGRFTISRDNSKNTLYLQMNSLRAEDTAVYYCARGRPWYSETGTSAFDIWGQGTMVTVSS
VL: DIQMTQSPSSLSASVGDRVTITCQASQDISNYLNWYQQKPGKAPKLLIYDASNLETGVPSRFSGSGSGTDFTFTISSLQPEDIATYYCQQSDHYPTFGGGTKVEIKR
notes: Made in yeast or CHO cells; also called ADI-25654-g1
B2: ADI-23515, IgG2 format (antibody)
heavy: QVQLQESGPGLVKPSQTLSLTCTVSGGSIRSGAYYWSWIRQHPGKGLEWIGYIYYDGQTYYNPSLKSRVTISVDTSKNQFSLKLSSVTAADTAVYYCARDVGYPHYYGMDVWGQGTTVTVSSASTKGPSVFPLAPCSRSTSESTAALGCLVKDYFPEPVTVSWNSGALTSGVHTFPAVLQSSGLYSLSSVVTVPSSNFGTQTYTCNVDHKPSNTKVDKTVERKCCVECPPCPAPPVAGPSVFLFPPKPKDTLMISRTPEVTCVVVDVSHEDPEVQFNWYVDGVEVHNAKTKPREEQFNSTFRVVSVLTVVHQDWLNGKEYKCKVSNKGLPAPIEKTISKTKGQPREPQVYTLPPSREEMTKNQVSLTCLVKGFYPSDIAVEWESNGQPENNYKTTPPMLDSDGSFFLYSKLTVDKSRWQQGNVFSCSVMHEALHNHYTQKSLSLSPG
light: EIVLTQSPGTLSLSPGERATLSCRASQSVSSSYLAWYQQKPGQAPRLLIYGASSRATGIPDRFSGSGSGTDFTLTISRLEPEDFAVYYCQQSERSPFTFGGGTKVEIKRTVAAPSVFIFPPSDEQLKSGTASVVCLLNNFYPREAKVQWKVDNALQSGNSQESVTEQDSKDSTYSLSSTLTLSKADYEKHKVYACEVTHQGLSSPVTKSFNRGEC
B3: ADI-25652, IgG1 format (antibody, V domains shown)
VH: B1 VH with R30V, D33N, Y50V, N57V
VL: B1 VL
notes: Made in yeast
B4: ADI-25653, IgG1 format (antibody, V domains shown)
VH: B1 VH with R30V, D33N, Y50V, A52M, N57A
VL: B1 VL
notes: Made in yeast
B5: ADI-25651, IgG1 format (antibody, V domains shown)
VH: B1 VH with R30S, Y32R, D33N, Y50V, N57L
VL: B1 VL
notes: Made in yeast
B6: ADI-25650, IgG1 format (antibody, V domains shown)
VH: B1 VH with R30S, S31V, D33N, Y50V, N57A
VL: B1 VL
notes: Made in yeast
B7: ADI-20118, Fab (Fab, V domains shown)
VH: QVQLVQSGAEVKKPGASVKVSCKASGYTFTSYAISWVRQAPGQGLEWMGWISAYNGNTNYAQKLQGRVTMTTDTSTSTAYMELRSLRSDDTAVYYCARSGGGSGPNWFDPWGQGTLVTVSS
VL: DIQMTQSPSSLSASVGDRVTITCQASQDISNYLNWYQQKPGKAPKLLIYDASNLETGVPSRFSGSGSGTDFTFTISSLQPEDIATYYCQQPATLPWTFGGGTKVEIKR
B8: ADI-20112, Fab (Fab, V domains shown)
VH: B1 VH with R30S, D33G, Y50V, A52S
VL: B1 VL
B9: ADI-20113, Fab (Fab, V domains shown)
VH: B1 VH with R30S, D33G, Y50V, A52S
VL: EIVMTQSPATLSVSPGERATLSCRASQSVSSNLAWYQQKPGQAPRLLIYSASTRATGIPARFSGSGSGTEFTLTISSLQSEDFAVYYCQQHNVYPPYTFGGGTKVEIKR
B10: ADI-20051, Fab (Fab, V domains shown)
VH: QVQLQQWGAGLLKPSETLSLTCAVYGGSFSGYYWSWIRQPPGKGLEWIGEIDHSGSTNYNPSLKSRVTISVDTSKNQFSLKLSSVTAADTAVYYCARDGGGGYASPFDYWGQGTLVTVSS
VL: EIVMTQSPATLSVSPGERATLSCRASQSVSSNLAWYQQKPGQAPRLLIYGASTRATGIPARFSGSGSGTEFTLTISSLQSEDFAVYYCQQYHAWPPTFGGGTKVEIKR
B11: ADI-20065, Fab (Fab, V domains shown)
VH: QLQLQESGPGLVKPSETLSLTCTVSGGSISSSSYYWGWIRQPPGKGLEWIGSIYYSGSTYYNPSLKSRVTISVDTSKNQFSLKLSSVTAADTAVYYCARDPGYSASPNWFDPWGQGTLVTVSS
VL: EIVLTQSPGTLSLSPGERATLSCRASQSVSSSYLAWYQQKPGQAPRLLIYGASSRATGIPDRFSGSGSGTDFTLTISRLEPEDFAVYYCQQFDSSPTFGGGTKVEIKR
B12: ADI-20066, Fab (Fab, V domains shown)
VH: B11 VH
VL: EIVLTQSPGTLSLSPGERATLSCRASQSVSSSFLAWYQQKPGQAPRLLIYGASSRATGIPDRFSGSGSGTDFTLTISRLEPEDFAVYYCQQYDVFPITFGGGTKVEIKR
B13: ADI-25651, Fab (Fab, V domains shown)
VH: B1 VH with R30S, Y32R, D33N, Y50V, N57L
VL: B1 VL
B14: ADI-25652, Fab (Fab, V domains shown)
VH: B1 VH with R30V, D33N, Y50V, N57V
VL: B1 VL

Positions count from the first letter of the chain named.

The first experiment deals with T1, human OX40 on cells (CHO-hOX40, 293HEK-hOX40, Jurkat-hOX40, activated primary CD4+ T cells) (human, UniProt P43489 29-277).
T1 sequence (looked up): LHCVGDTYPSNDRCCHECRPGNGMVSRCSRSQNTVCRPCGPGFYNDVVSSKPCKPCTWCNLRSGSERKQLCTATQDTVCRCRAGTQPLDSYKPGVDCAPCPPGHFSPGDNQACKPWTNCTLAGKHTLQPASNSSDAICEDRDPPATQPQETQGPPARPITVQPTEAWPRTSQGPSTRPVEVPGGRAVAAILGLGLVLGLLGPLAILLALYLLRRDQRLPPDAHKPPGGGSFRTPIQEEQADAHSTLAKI
In words: cell-based or functional assay.
Consider B1, for which the “EC50, NFkB-luciferase reporter in Jurkat-hOX40 mixed with Raji cells” value turned out to be 0.0282 nM.

B2: the “EC50, NFkB-luciferase reporter in Jurkat-hOX40” value turned out to be 0.39 nM.

The next experiment deals with T1, human OX40 on cells (CHO-hOX40, …). The experiment in a line: flow cytometry, CHO-hOX40, 100 nM. (In general: A flow cytometer gives signals particle by particle.)
B3: the “CHO-OX40 binding intensity (MFI)” value stood at 253000 MFI.

As for B1, the “CHO-OX40 binding intensity (MFI)” value turned out to be 252000 MFI.

Regarding B4, the “CHO-OX40 binding intensity (MFI)” value turned out to be 252000 MFI.

As for B5, the “CHO-OX40 binding intensity (MFI)” value turned out to be 253000 MFI.

As for B6, the “CHO-OX40 binding intensity (MFI)” value is 252000 MFI.

In a further experiment the target is T2, human OX40_Fc (R&D Systems) (human, UniProt P43489 29-216).
T2 construct: Bought
The experiment in a line: BLI, IgG1 on tip, hOX40-Fc 50 nM, avid.
Take B3: binding was characterised by a dissociation constant (Kd) of 0.261 nM.

With B1, binding was put at a Kd of 0.283 nM.

B4: the Kd (commonly the free concentration of one partner at which half of the binding sites on the other are occupied at equilibrium, for simple one-to-one binding) was 0.223 nM.

Take B5: the affinity, expressed as Kd, was 0.268 nM.

For B6, the Kd worked out at 0.23 nM.

The target in the next experiment is T3, cyno OX40_Fc (Acro Biosystems) (cyno).
T3 construct: Bought
In words: BLI, IgG1 on tip, cyno OX40-Fc 100 nM, avid.
Molecule B3 showed a Kd of 2.11 nM.

On to B1, for which the Kd stood at 1.53 nM.

In the case of B4, the Kd turned out to be 1.15 nM.

In turn, B5 registered a Kd of 1.37 nM.

As to B6, binding was put at a Kd of 1.6 nM.

The target of another experiment is T4, mouse OX40Fc (Acro Biosystems) (mouse, UniProt P47741 20-211, limits assumed).
T4 construct: Bought; not shown: Fc
T4 sequence (looked up): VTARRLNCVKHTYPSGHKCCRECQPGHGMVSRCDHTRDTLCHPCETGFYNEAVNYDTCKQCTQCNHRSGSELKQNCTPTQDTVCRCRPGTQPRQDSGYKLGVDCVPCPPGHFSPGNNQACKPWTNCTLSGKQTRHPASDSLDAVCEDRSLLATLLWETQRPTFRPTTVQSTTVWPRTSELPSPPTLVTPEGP
The experiment in a line: BLI, IgG1 on tip, mouse OX40-Fc in solution. (BLI is a label-free optical method that tracks binding on a fibre tip over time.)
For the molecule B3, the binding result is “no binding (tested: 100 nM)”.

On to B1, for which the binding result is listed as “no binding (tested: 100 nM)”.

B4: the binding result is on record as “no binding (tested: 100 nM)”.

Consider B5, for which the binding result is “no binding (tested: 100 nM)”.

For the molecule B6, the binding result is recorded as “no binding (tested: 100 nM)”.

A further experiment has as its target T2, human OX40_Fc (R&D Systems). In words: BLI, hOX40-Fc on tip, Fab 200 nM, monovalent.
Regarding B7, the Kd was determined as 137 nM.

B8 returned a Kd of 70.6 nM.

As for B9, the Kd was 182 nM.

B10 displayed a Kd of 25.8 nM.

Take B11: binding was characterised by a dissociation constant (Kd) of 10.8 nM.

In turn, B12 gave a Kd of 21.8 nM.

Another experiment shares this target. In words: BLI, hOX40-Fc on tip, Fab 200 nM, monovalent. The source holds these as a separate data set.
The molecule B8 yielded a Kd of 63.9 nM.

The molecule B13 came in with a Kd of 2.32 nM.

Take B14: the Kd was found to be 1.31 nM.

For another experiment, the target named is T5, Human biotinylated OX40-His monomer (human, UniProt P43489 29-216, limits assumed, biotinylated).
T5 construct: Bought from Acro Biosystems; also called biotin-OX-40 monomer; not shown: His tag
T5 sequence (looked up): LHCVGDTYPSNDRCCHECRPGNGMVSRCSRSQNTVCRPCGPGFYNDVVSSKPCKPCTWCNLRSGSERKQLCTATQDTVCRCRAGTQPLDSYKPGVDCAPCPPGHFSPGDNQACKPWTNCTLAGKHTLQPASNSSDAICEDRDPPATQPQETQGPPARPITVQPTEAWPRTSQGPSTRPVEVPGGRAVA
The experiment in a line: MSD-SET, biotinylated OX40-His monomer with Fab.
In turn, B13 displayed a Kd of 0.17 nM.

In turn, B14 had a Kd of 0.15 nM.

A further experiment has as its target T1, human OX40 on cells (CHO-hOX40, …). The experiment in a line: flow cytometry, MFI on CHO-hOX40 over wild-type CHO.
For B3, the Fold difference came out at 2400 fold.

For the molecule B1, the Fold difference turned out to be 2260 fold.

In turn, B4 gave a Fold difference of 2320 fold.

As for B5, the Fold difference was found to be 2340 fold.

In the case of B6, the Fold difference was 2040 fold.
